Data: the DeepSol protein solubility set

Test: soluble on expression in E. coli; label from the status in PepcDB or PDB records
For “MYRPKDHGWVEVIVGPMYSGKSEELIRRIRRAKIAKQKIQVFKPEIDNRYSKEDVVSHMGEKEQAVAIKNSREILKYFEEDTEVIAIDEVQFFDDEIVEIVNKIAESGRRVICAGLDMDFRGKPFGPIPELMAIAEFVDKIQAICVVCGNPATRTQRLINGKPAFYDDPVVLIGAMESYEARCRKCHVVPQKKEVMAGDPLEHHHHHH”, the “soluble on expression in E. coli” value was “soluble”.
With “MYSERPPLDPHPLSPYMAWTGYRNRDAILDVLKGVFPRDKSDVLEFAAGSGMHAHYFAQHFAHLTFHPSDSDEDLLPHIEERTRQSGLSNVARPRRLDLTQPETWPAGEKFHAIYCINVCQVAPVSIVGGIMACSSRILADGGFLFIYGPFLDYGRFASDFDEEFDRLLRSTGEEGWSLKDIAELDRAAGRHGMRLDDEIDMPSNDFALIYRRA” the “soluble on expression in E. coli” value was “not soluble”.
For “MYTEYQPSRLLAPYIDNYWEFKGTPEYGMRIHILPDGCTDFIFTLGEAVSKVKEETLVMQPYRSYFVGPMTKYSELVTYAEFVHQFGVRFLPCGLSGFTKLPLHEFANYRISTNEMQAVFDSTFIERLCEQNDVRGRIQVVEEYLLAYLAHNYQPVDTQVAAAVNIINQSAGKRSVRSLMDEVCLCQRHFERKFKHNTGFTPKEYSRIVKFKNAVELLRNTTSVNLLTTAIDAGYYDLAHFSKEIKTLSGNTPSSFLSLTVPEDITLTYIEP”, the “soluble on expression in E. coli” value was “soluble”.
With “MYTIAALYHFTRFADPADLKPALLDLCLAQGVKGTLLLAKEGINGTIAGPRAGIDAVLAHIRALPGCSDLEWKEATSDHPPFGKMKVRLKQEIVTMGQPDVDPRARVGHYVEPEDWNDLIRSDDVVLIDTRNDYEVAIGTFEGAIDPMTESFRDFPAWWEANKERFHNKRVAMFCTGGIRCEKSTNYLLGQGVEDVYHLKGGILRYLEEVPAENSTWQGECFVFDNRVSVGHGLVEGPHELCHGCRRPILPEDRNRPEYEHGVSCHLCIDETSEADKMRFRERQKQIALARARGEDHLATHLEHHHHHH” the “soluble on expression in E. coli” value was “soluble”.
With “MYWERGLHMYKASAVVPTGYVRVGNTAPLVGEDTQRYASFWGDGYDVYRQLRWQQIPEKQRKAFKKAAKSKKTVMFAGREYGISKQNLSDVWDDFEDAMELKAFPCLSSLFLTKWHKNLYDSGLTKTSTALPRLSSKRTIL” the “soluble on expression in E. coli” value was “not soluble”.
In the case of “NELSQERTARLNELQRALVMMDSDFRQIALRQTRTNGEEPSKKLLHWADYLLDSDNKGIMFARLGWHNPQQQFPRGEVTKVGYRIKDERLERVWWRYPDTPAGQEGVVTPLLSDVEELNVRFYDGKQWINEWSNELTLPAAISVELTLKDYGKIARTYLTPEGN”, the “soluble on expression in E. coli” value was “soluble”.
In the case of “NENNTVVAETKTSTASETSEPKQVISSKQQLASLYLQAKQSLFKQRALSATMYGLSQKDIGQVISSDMEFYSPENEKQLRAELLSISNTIAGIKLDDADITTKNNQQVMAGLTRYFAGEPNFNIGYIDTWMGLSPFIVNQINGPLIDIPRVMQNDQPITTEKEALDYIVRLGQFDKLAATIIEKQTADAAQNWLPSKVTLQGAIKYLKGFTSGSAEQHPFVNVFREKIEKVDSLTTEQKQSLITQVIAKVSQVVYPAYQSVEKASEQLLSEARSESGIWAQPKGSVYYQDAIKQLGDSELSPTQIHQIGLDEVARISGVMNEILLAQGYTKGTVGERMVALNEEPRFLYEDSIAGREELLSDINGYITEVTAKMAPVFRTTPSYQVEVKSFPVEVQDGAPGGQYTSPAVDGSKPGIYWINLRDMKANPKFGLKTLTYHEANPGHHWQIALNLDQAELPFLRRIAPYNAYTEGWALYSEQVAYELGMYENDPFGDLGRLQAELFRAVRLVVDTGLHDKRWTREQAISYMSEQTGTAESDVVAEIERYMAWPGQALGYKLGMLKILSLREQAKARLGDKFDLAEFHDVVLLNGAVPMAVLSRNVNHWLDNK”, the “soluble on expression in E. coli” value was “soluble”.
For “NEVESGYYFTTLDHYIYEAEEANLGPGVVVVERQYIQDRIPSWTGPGFVRVPEGAYLEFFIDNIPYSMEYEILIRYEPQLPDHWEKAVITVQRPGKIPASSRCGNTVPDDDNQVVSLSPGSRYVVLPRPVCFEKGMNYTVRLELPQYTASGSDVESPYTFIDSLVLMPYCKSLDIFTVGGSGDGEVTNSAWETFQRYRCLENSRSVVKTPMTDVCRNIIFSISALIHQTGL”, the “soluble on expression in E. coli” value was “soluble”.
With “NGQSDVKHIGILQYVEHPSLTATRKGFIKELAKEGYKDGKNIKIEYKNAQGDQSNIQSISEKLIKDNKLVLGIATPAAQSLTTVSTETPILFTAVTDPVSAELVKSMKKPEGLATGTSDMSPIKKQVSLLRKVMPKVKRVGIMYTTSERNSEVQVKQAKKIFQEAGIKTSVKGISSTNDVQDTAKSLMSKTEVIFVPTDNIIASSVTLLGNLSKELKVPVVGGSADMVPSGLLFSYGADYEALGRQTARQAVKILKGKDVAKVPSEYPQNLKVVVNEDMAKELGIDVSSIK” the “soluble on expression in E. coli” value was “not soluble”.
In the case of “NIDGYNELTVGELTGPTTIETFPTPDLPGGLAGGVSWGPDAERFAVSVTGRTVNTNVFVVETETGESEQWTAASTAGIPQETLIEPEVVRFDSFDGREIPALFSPPDGAADGAGADGDTPVIVDIHGGPESQRRPSFSGLTQYFLSRGYAVFEPNVRGSTGYGKAYTHLDDVEKRMDSVKDLRAGVDWLHNHPAVDPDRIVAMGGSYGGFMVLAALTEYPDLWAAGVDVVGIANFVTFLENTGDWRRELREAEYGSLDTDREFLESISPINNVDRINAPLFVLHGANDPRVPVGEAEQIAEQAAEQGVPVEKLVFDDEGHGISKRENRIEAYTAVVEFLDDHV”, the “soluble on expression in E. coli” value was “not soluble”.
In the case of “NIVLTQSPASLAVSLGQRATISCRANESVYSYGDSFMHWYQQKPGQPPKLLIYLASNLASGVPARFSGSGSRTDFTLTIDPVETDDAATYYCQQNNEDPWTFGGGTKLEIKRGDAAPTVSIFPPSSEQLTSGGASVVCFLNNFYPKDANVAWKIDGSERQNGVLNSWTDQDSKDSTYSMSSTLTLTKDEYERHNSYTCEATHKTSTSPIVKSFNR”, the “soluble on expression in E. coli” value was “soluble”.
In the case of “NIYLDKRITKQATQFLEAARAIDSREHLISGYRSVAYQEKLFNSYVTQEMTSNPNLTRGQAEKLVKTYSQPAGASEHQTGLAMDMSTVDSLNESDPRVVSQLKKIAPQYGFVLRFPDGKTAETGVGYEDWHYRYVGV”, the “soluble on expression in E. coli” value was “not soluble”.
With “NKDWSYRIGFNLYDSQSEITKYNNETNLLGDKIYRKGMKMGEIWGYVTDRFYTEDDFNADGTLKPGIPIPKGAGKVFPGDVLYKNFDDDTETIWSGEGTADNPGDQRIIGNSTPRFHYGITAGISWKGLDLSIFLRGVGKRDYWRTDQIAWPTGGWGSLFKETLNFWTPTNTNAYYPRVYSNDGVNTSYNHWKQSKYLANASYLKLQNITLSYTLPKVWSQRLYFDDVKVFFSGENLYTWDHLPEGLETDMLSKGAWEYPFMRKFSFGINVTF” the “soluble on expression in E. coli” value was “not soluble”.
With “NKLAQKYDHQREQELREWIEGVTGRRIGNNFMDGLKDGIILCEFINKLQPGSVKKINESTQNWHQLENIGNFIKAITKYGVKPHDIFEANDLFENTNHTQVQSTLLALASMAKTKGNKVNVGV” the “soluble on expression in E. coli” value was “soluble”.
With “NKSDMNHFMQVLRYLDPIHYLKATNDNGFPMSRMYSNQTVTIGGTITQPLPFKPDGENNVKLQRVVAKLDVNIVEGVENLQKIELCNANVHYRLVPNQSEPIQFYGPVELRRVGTTNQWLGYMPEAIVESTKWWGNTGNAENKPINFFRLTTRGGLVYDVPIITHEGAIPGGQYLPFAKGLLADKPSYTVYRNRHYIYRIKTLPDKIEVKYSICDWNIVTNDTYMGYGYNVGVDEQGNVTITNTMQNCDPHVVRLVAKNGAYFGSQPTDTSVEFAELANGASQTFKVNKDAVAVGSAYLEVYYNPDPNATGVVPDKVFIKK” the “soluble on expression in E. coli” value was “not soluble”.
For “NLKVEFYNSNPSDTTNSINPQFKVTNTGSSAIDLSKLTLRYYYTVDGQKDQTFWCDHAAIIGSNGSYNGITSNVKGTFVKMSSSTNNADTYLEISFTGGTLEPGAHVQIQGRFAKNDWSNYTQSNDYSFKSASQFVEWDQVTAYLNGVLVWGKEP”, the “soluble on expression in E. coli” value was “soluble”.
For “NNMHHLAVVGARDSTSYTQQSLEFLLSNDKSKYLTIVSGLAQGADAMAHQIALKYNLPTIAVLAFGHQTHYPKSTLALRNKIEEKGLVISEYPPHTPIAKYRFPERNRIISGLSKGVLITEAKEQSGSHITIDFALEQNRNVYVLPGSMFNPMTKGNLLRIQEGAKVVLNANDIFEDYYI”, the “soluble on expression in E. coli” value was “not soluble”.
In the case of “NTLTVKMNDALSSGTGENIGEITVSETPYGLLFTPHLNGLTPGIHGFHVHTNPSCMPGMKDGKEVPALMAGGHLDPEKTGKHLGPYNDKGHLGDLPGLVVNADGTATYPLLAPRLKSLSELKGHSLMIHKGGDNYSDKPAPLGGGGARFACGVIEK”, the “soluble on expression in E. coli” value was “soluble”.
In the case of “PDLLIELFSEEIPARMQARAREDLKKLVTDGLVEAGLTYASAGAFSTPRRLVLSVEGLSAESPTLREERKGPKADAPAAAIEGFLRSTGLTRDQLETREDKKGAVLFAVVEKPGRRAPDIVAEVLERTIRTFPWPKSMRWGTGSLRWVRPLHSILCLLSDEAGSQVVPVTVDQVTAVNTTEGHRFMAPGRFAVTGFDDYRAKLQRALVMLDAAEREQAIWHEATTQAFAQGLEVVPDAGLLAEVAGLVEWPVVLMGPIGEEFLGLPPEVLQTSMREHQKFFSVRNPATGRIEKFVTVANRETADHGATILKGNAKVLSARLSDASFFWENDRRTVQTVGLEGMAAGLAHVTFHNKLGSQADRIARIEALAREIAPLVGASPDLAAEAARVAKADLQSAMVGEFPELQGTMGSYYARAAGLPEPVALACKAHYQPLGPSDAVPTDPVSVAVALADKIDTLTGFWAIDEKPTGSKDPFALRRAALGVVRLLLMNGLRLSLLNQVRFAHGCLAEQFNSRFNFFVQIREEPKEAVNIGVGHRYPEVVSDQCTSILMGYVENPVESVASGKFTIDGRAVGTKP”, the “soluble on expression in E. coli” value was “not soluble”.
With “PDPVRLEIFKNLYQFIAEQMGIVLQNTAASVNIKERLDFSCAIFDSSGLLVANAPHIPVHLGSMSESVCSLINDKGETIKPGNVYLSNNPYNGGTHLPDVTAITPVFPETQENPPTPLFYVASRGHQADIGGITPGSMPPHSTTVEEEGILFDNFLLVEAGNFQEIQVRNLLANHLYPARNPDQNIADFQAQIAANERGVKELHKMVAQYGLPIVQVYMKFVQDNAGESVRRAIDVLKDGTFIYEMDGGAKIQVKVTINREKRSAEIDFTGTSEQLNSNFNAPKAVTQAAVLYVFRTLVDDNIPLNAGCLKPLDIIVPEGCMLNPTYPSAVVAGNVETSQTIVDALYGALSVMAASQGTMNNFTFGSDRYQYYETICGGSGAGSNFDGTDAVHTHMTNSLLTDPEVLETRYPVLVESFSLRSDSGGKGKYSGGNGVVRRIRFLEPMTANILSGHRLVPPFGLNGGEAGQVGHNRIERHDGTQENLDSTATAEMQPGDVFVIETPGGGGFG” the “soluble on expression in E. coli” value was “not soluble”.
With “PEIKDHLIMVGFGFSGKTISKAAKAAGIPYIILETNPDIVKQEKTKGERIQYGDATFGAVQEHAGIRNARVLITGISDSVATRKIVEKAKELNPNIYVIAKVRNLQEMKHLHHLGADEIIPEEYETSVEIFVRLLEKYLV” the “soluble on expression in E. coli” value was “not soluble”.
In the case of “PEMKIVMTSTTEVMEEVLVVAYGTAKKSAFTGSAKMIHTEQITKRPVTNVIESLSGQVAGLQMTMTNGQPGETPSILIRGISSMSAKTDPLIVLDGMPYEGGWNNINPADVESISVLKDAASTALYGARGANGVIIITTKSAKAGD”, the “soluble on expression in E. coli” value was “not soluble”.
With “PEQEEEILGSDDDEQEDPNDYCKGGYHLVKIGDLFNGRYHVIRKLGWGHFSTVWLSWDIQGKKFVAMKVVKSAEHYTETALDEIRLLKSVRNSDPNDPNREMVVQLLDDFKISGVNGTHICMVFEVLGHHLLKWIIKSNYQGLPLPCVKKIIQQVLQGLDYLHTKCRIIHTDIKPENILLSVNEQYIRRLAAEATEWQRSGAPPPSGSAVSTAPATAGNFLVNPLEPKNAEKLKVKIADLGNACWVHKHFTEDIQTRQYRSLEVLIGSGYNTPADIWSTACMAFELATGDYLFEPHSGEEYTRDEDHIALIIELLGKVPRKLIVAGKYSKEFFTKKGDLKHITKLKPWGLFEVLVEKYEWSQEEAAGFTDFLLPMLELIPEKRATAAECLRHPWLNS” the “soluble on expression in E. coli” value was “soluble”.
